{"source": "the Human Domainome abundance scans (Beltran et al. 2025)", "parents": {"B1": {"name": "Tyrosine-protein kinase Lck, residues 63 to 120; numbered along this chain, P06239 (parent)", "chain": "DNLVIALHSYEPSHDGDLGFEKGEQLRILEQSGEWWKAQSLTTGQEGFIPFNFVAKAN"}}, "note": "± gives the uncertainty stated by the source."}
{"variants_of": "B1", "assay": "abundance fitness (aPCA) (normalised: wild type 0, dead -1); higher = more abundant; growth selection in yeast, the domain comes from the species named", "conditions": "Homo sapiens"}
{"variant": "W36T", "abundance fitness": "-0.029 ± 0.15"}
{"variant": "W36V", "abundance fitness": "-0.1 ± 0.076"}
{"variant": "W36R", "abundance fitness": "-0.213 ± 0.066"}
{"variant": "W36A", "abundance fitness": "0.032 ± 0.094"}
{"variant": "W36C", "abundance fitness": "-0.046 ± 0.098"}
{"variant": "W36L", "abundance fitness": "-0.101 ± 0.079"}
{"variant": "W36D", "abundance fitness": "-0.614 ± 0.18"}
{"variant": "W36G", "abundance fitness": "-0.283 ± 0.067"}
{"variant": "W36K", "abundance fitness": "-0.521 ± 0.22"}
{"variant": "W36M", "abundance fitness": "-0.075 ± 0.11"}
{"variant": "W36E", "abundance fitness": "-0.881 ± 0.16"}
{"variant": "W36S", "abundance fitness": "-0.408 ± 0.086"}
{"variant": "W36Y", "abundance fitness": "-0.074 ± 0.16"}
{"variant": "W36F", "abundance fitness": "-0.181 ± 0.13"}
{"variant": "W36H", "abundance fitness": "-0.585 ± 0.27"}
{"variant": "W36P", "abundance fitness": "-0.298 ± 0.1"}
{"variant": "W36I", "abundance fitness": "-0.617 ± 0.31"}
{"variant": "K37S", "abundance fitness": "-0.321 ± 0.085"}
{"variant": "K37P", "abundance fitness": "-0.808 ± 0.18"}
{"variant": "K37A", "abundance fitness": "-0.615 ± 0.12"}
{"variant": "K37R", "abundance fitness": "-0.046 ± 0.073"}
{"variant": "K37E", "abundance fitness": "-0.435 ± 0.1"}
{"variant": "K37C", "abundance fitness": "-0.593 ± 0.12"}
{"variant": "K37H", "abundance fitness": "-0.388 ± 0.29"}
{"variant": "K37Y", "abundance fitness": "-0.177 ± 0.14"}
{"variant": "K37I", "abundance fitness": "-0.151 ± 0.12"}
{"variant": "K37V", "abundance fitness": "-0.232 ± 0.092"}
{"variant": "K37N", "abundance fitness": "-0.548 ± 0.17"}
{"variant": "K37Q", "abundance fitness": "-0.406 ± 0.14"}
{"variant": "K37F", "abundance fitness": "-0.229 ± 0.14"}
{"variant": "K37M", "abundance fitness": "-0.307 ± 0.12"}
{"variant": "K37G", "abundance fitness": "-0.96 ± 0.14"}
{"variant": "K37W", "abundance fitness": "-0.152 ± 0.088"}
{"variant": "K37T", "abundance fitness": "-0.267 ± 0.1"}
{"variant": "K37D", "abundance fitness": "-1.16 ± 0.29"}
{"variant": "W35L", "abundance fitness": "-0.029 ± 0.081"}
{"variant": "W35C", "abundance fitness": "-0.185 ± 0.15"}
{"variant": "W35D", "abundance fitness": "-0.444 ± 0.14"}
{"variant": "W35A", "abundance fitness": "-0.044 ± 0.095"}
{"variant": "W35Y", "abundance fitness": "-0.131 ± 0.2"}
{"variant": "W35G", "abundance fitness": "-0.303 ± 0.11"}
{"variant": "W35Q", "abundance fitness": "0.069 ± 0.15"}
{"variant": "W35H", "abundance fitness": "-0.081 ± 0.14"}
{"variant": "W35N", "abundance fitness": "-0.128 ± 0.15"}
{"variant": "W35M", "abundance fitness": "0.01 ± 0.12"}
{"variant": "W35I", "abundance fitness": "-0.049 ± 0.13"}
{"variant": "W35R", "abundance fitness": "0.091 ± 0.085"}
{"variant": "W35S", "abundance fitness": "0.002 ± 0.11"}
{"variant": "A38I", "abundance fitness": "-0.788 ± 0.3"}
{"variant": "A38D", "abundance fitness": "-1.01 ± 0.31"}
{"variant": "A38W", "abundance fitness": "-0.598 ± 0.19"}
{"variant": "A38C", "abundance fitness": "-0.4 ± 0.12"}
{"variant": "A38R", "abundance fitness": "-1.08 ± 0.15"}
{"variant": "A38L", "abundance fitness": "-0.337 ± 0.1"}
{"variant": "A38N", "abundance fitness": "-0.445 ± 0.26"}
{"variant": "A38K", "abundance fitness": "-0.927 ± 0.27"}
{"variant": "A38V", "abundance fitness": "-0.104 ± 0.082"}
{"variant": "A38Y", "abundance fitness": "-0.714 ± 0.22"}
{"variant": "A38Q", "abundance fitness": "-0.891 ± 0.34"}
{"variant": "A38F", "abundance fitness": "-0.771 ± 0.28"}
{"variant": "A38G", "abundance fitness": "-0.483 ± 0.077"}
{"variant": "A38S", "abundance fitness": "-0.795 ± 0.16"}
{"variant": "A38T", "abundance fitness": "-0.963 ± 0.23"}
{"variant": "A38M", "abundance fitness": "-0.656 ± 0.2"}
{"variant": "A38E", "abundance fitness": "-0.934 ± 0.19"}
{"variant": "L41W", "abundance fitness": "-0.933 ± 0.12"}
{"variant": "L41Q", "abundance fitness": "-0.167 ± 0.2"}
{"variant": "L41A", "abundance fitness": "-0.382 ± 0.094"}
{"variant": "L41P", "abundance fitness": "-0.339 ± 0.14"}
{"variant": "L41D", "abundance fitness": "-0.666 ± 0.2"}
{"variant": "L41Y", "abundance fitness": "-0.65 ± 0.16"}
{"variant": "L41N", "abundance fitness": "-0.624 ± 0.24"}
{"variant": "L41R", "abundance fitness": "-0.513 ± 0.073"}
{"variant": "L41E", "abundance fitness": "-0.153 ± 0.099"}
{"variant": "L41K", "abundance fitness": "-0.348 ± 0.16"}
{"variant": "L41M", "abundance fitness": "-0.227 ± 0.13"}
{"variant": "L41T", "abundance fitness": "-0.149 ± 0.11"}
{"variant": "L41G", "abundance fitness": "-0.721 ± 0.08"}
{"variant": "L41S", "abundance fitness": "-0.478 ± 0.077"}
{"variant": "L41H", "abundance fitness": "-0.765 ± 0.18"}
{"variant": "L41F", "abundance fitness": "-0.54 ± 0.12"}
{"variant": "L41C", "abundance fitness": "-0.068 ± 0.1"}
{"variant": "L41I", "abundance fitness": "-0.058 ± 0.14"}
{"variant": "E34T", "abundance fitness": "-0.092 ± 0.093"}
{"variant": "E34Y", "abundance fitness": "-0.026 ± 0.19"}
{"variant": "E34V", "abundance fitness": "-0.076 ± 0.092"}
{"variant": "E34G", "abundance fitness": "-0.13 ± 0.081"}
{"variant": "E34A", "abundance fitness": "-0.065 ± 0.13"}
{"variant": "E34S", "abundance fitness": "-0.054 ± 0.081"}
{"variant": "E34L", "abundance fitness": "-0.225 ± 0.078"}
{"variant": "E34Q", "abundance fitness": "-0.149 ± 0.14"}
{"variant": "E34F", "abundance fitness": "-0.138 ± 0.2"}
{"variant": "E34W", "abundance fitness": "-0.34 ± 0.091"}
{"variant": "E34P", "abundance fitness": "-0.183 ± 0.12"}
{"variant": "E34M", "abundance fitness": "-0.262 ± 0.1"}
{"variant": "E34C", "abundance fitness": "-0.276 ± 0.11"}
{"variant": "E34R", "abundance fitness": "0.006 ± 0.07"}
{"variant": "E34I", "abundance fitness": "-0.142 ± 0.17"}
{"variant": "E34N", "abundance fitness": "-0.203 ± 0.16"}
{"variant": "E34H", "abundance fitness": "-0.205 ± 0.14"}
{"variant": "S40P", "abundance fitness": "-0.793 ± 0.15"}
{"variant": "S40Y", "abundance fitness": "-0.862 ± 0.21"}
{"variant": "S40I", "abundance fitness": "-0.687 ± 0.21"}
{"variant": "S40W", "abundance fitness": "-0.989 ± 0.15"}
{"variant": "S40A", "abundance fitness": "-0.382 ± 0.088"}
{"variant": "S40K", "abundance fitness": "-0.076 ± 0.13"}
{"variant": "S40E", "abundance fitness": "-0.789 ± 0.13"}
{"variant": "S40N", "abundance fitness": "-0.135 ± 0.15"}
{"variant": "S40R", "abundance fitness": "-0.107 ± 0.067"}
{"variant": "S40T", "abundance fitness": "-0.484 ± 0.14"}
{"variant": "S40M", "abundance fitness": "-0.918 ± 0.17"}
{"variant": "S40G", "abundance fitness": "-0.795 ± 0.087"}
{"variant": "S40D", "abundance fitness": "-0.626 ± 0.14"}
{"variant": "S40Q", "abundance fitness": "-0.622 ± 0.18"}
{"variant": "S40V", "abundance fitness": "-0.641 ± 0.088"}
{"variant": "S40F", "abundance fitness": "-0.908 ± 0.12"}
{"variant": "S40H", "abundance fitness": "-0.115 ± 0.15"}
{"variant": "S40L", "abundance fitness": "-0.538 ± 0.083"}
{"variant": "S32Y", "abundance fitness": "-0.082 ± 0.12"}
{"variant": "S32N", "abundance fitness": "0.101 ± 0.14"}
{"variant": "S32P", "abundance fitness": "-0.407 ± 0.14"}
{"variant": "S32R", "abundance fitness": "0.012 ± 0.081"}
{"variant": "S32W", "abundance fitness": "-0.455 ± 0.14"}
{"variant": "S32T", "abundance fitness": "0.05 ± 0.11"}
{"variant": "S32L", "abundance fitness": "-0.377 ± 0.088"}
{"variant": "S32K", "abundance fitness": "0.06 ± 0.13"}
{"variant": "S32Q", "abundance fitness": "0.182 ± 0.22"}
{"variant": "T42E", "abundance fitness": "-0.015 ± 0.13"}
{"variant": "T42D", "abundance fitness": "-0.181 ± 0.13"}
{"variant": "T42F", "abundance fitness": "-0.305 ± 0.14"}
{"variant": "T42H", "abundance fitness": "-0.08 ± 0.15"}
{"variant": "T42K", "abundance fitness": "0.042 ± 0.12"}
{"variant": "T42G", "abundance fitness": "-0.248 ± 0.079"}
{"variant": "T42L", "abundance fitness": "-0.12 ± 0.097"}
{"variant": "T42I", "abundance fitness": "-0.049 ± 0.083"}
{"variant": "T42A", "abundance fitness": "-0.035 ± 0.082"}
{"variant": "G33Y", "abundance fitness": "-0.922 ± 0.25"}
{"variant": "G33C", "abundance fitness": "-0.491 ± 0.13"}
{"variant": "G33F", "abundance fitness": "-0.853 ± 0.23"}
{"variant": "G33E", "abundance fitness": "-0.491 ± 0.12"}
{"variant": "G33W", "abundance fitness": "-0.929 ± 0.18"}
{"variant": "G33S", "abundance fitness": "-0.166 ± 0.097"}
{"variant": "G33A", "abundance fitness": "-0.398 ± 0.09"}
{"variant": "G33D", "abundance fitness": "-0.467 ± 0.11"}
{"variant": "G33Q", "abundance fitness": "-0.767 ± 0.33"}
{"variant": "G33H", "abundance fitness": "-0.633 ± 0.17"}
{"variant": "G33N", "abundance fitness": "-0.145 ± 0.26"}
{"variant": "G33L", "abundance fitness": "-0.812 ± 0.12"}
{"variant": "G33V", "abundance fitness": "-0.881 ± 0.12"}
{"variant": "G33P", "abundance fitness": "-0.544 ± 0.14"}
{"variant": "G33K", "abundance fitness": "-0.545 ± 0.16"}
{"variant": "Q39Y", "abundance fitness": "-0.468 ± 0.14"}
{"variant": "Q39C", "abundance fitness": "-0.386 ± 0.13"}
{"variant": "Q39G", "abundance fitness": "-0.722 ± 0.095"}
{"variant": "Q39A", "abundance fitness": "-0.361 ± 0.12"}
{"variant": "Q39N", "abundance fitness": "-0.868 ± 0.3"}
{"variant": "Q39K", "abundance fitness": "-0.042 ± 0.12"}
{"variant": "Q39S", "abundance fitness": "-0.297 ± 0.092"}
{"variant": "Q39P", "abundance fitness": "-0.843 ± 0.23"}
{"variant": "Q39R", "abundance fitness": "-0.017 ± 0.073"}
{"variant": "Q39T", "abundance fitness": "-0.278 ± 0.11"}
{"variant": "Q39F", "abundance fitness": "-0.503 ± 0.2"}
{"variant": "Q39I", "abundance fitness": "-0.327 ± 0.17"}
{"variant": "Q39W", "abundance fitness": "-0.784 ± 0.12"}
{"variant": "Q39L", "abundance fitness": "-0.312 ± 0.083"}
{"variant": "Q39M", "abundance fitness": "-0.179 ± 0.11"}
{"variant": "Q39D", "abundance fitness": "-1.03 ± 0.35"}
